For this assay, the target named is T1, Aβ1–42 peptide (UniProt P05067 672-713).
T1 construct: amyloid beta 1-42, cut product of the amyloid beta precursor protein (APP); For neurons and isolated mitochondria the peptide was prepared as oligomeric Aβ (HFIP film, DMSO, HAM'S F-12, 4 °C for 24 h); for the pull-down the methods say only 'Aβ peptide'; also called amyloid beta; oligomeric Aβ1–42; source: synthetic peptide, bought: GenicBio
Kind of assay: pull-down; GST-tagged OSCP on glutathione agarose as bait, incubated overnight at 4 °C with Aβ peptide; immunoblotting or coomassie staining. The settings on record: both partners purified.

B1: GST-tagged OSCP (oligomycin sensitivity conferring protein), wild type (natural protein, human, UniProt P48047 24-213, looked up)
chain: FAKLVRPPVQVYGIEGRYATALYSAASKQNKLEQVEKELLRVAQILKEPKVAASVLNPYVKRSIKVKSLNDITAKERFSPLTTNLINLLAENGRLSNTQGVVSAFSTMMSVHRGEVPCTVTSASPLEEATLSELKTVLKSFLSQGQVLKLEAKTDPSILGGMIVRIGEKYVDMSVKTKIQKLGRAMREIV
notes: oligomycin sensitivity conferring protein (OSCP) subunit of mitochondrial F1FO-ATP synthase, human cDNA (Gene Name ATP5O, NCBI Gene ID 539) in pGEX-4t-1; it may tell the limits of the construct; also called GST-OSCP; wild-type OSCP
In the case of B1, the binding result is “binds”.
